In patent US20260060994A1, “GLYCOSYLATED COMPOSITIONS AND METHODS OF USE” (Cy Biopharma AG, priority 2023, published 2026):

B1: GLY70: glycosyltransferase (UGT), SEQ ID NO: 2 (protein)
chain: MAKQQEAELIFIPFPIPGHILATIELAKRLISHQPSRIHTITILHWSLPFLPQSDTIAFLKSLIETESRIRLITLPDVQNPPPMELFVKASESYILEYVKKMVPLVRNALSTLLSSRDESDSVHVAGLVLDFFCVPLIDVGNEFNLPSYIFLTCSASFLGMMKYLLERNRETKPELNRSSDEETISVPGFVNSVPVKVLPPGLFTTESYEAWVEMAERFPEAKGILVNSFESLERNAFDYFDRRPDNYPPVYPIGPILCSNDRPNLDLSERDRILKWLDDQPESSVVFLCFGSLKSLAASQIKEIAQALELVGIRFLWSIRTDPKEYASPNEILPDGFMNRVMGLGLVCGWAPQVEILAHKAIGGFVSHCGWNSILESLRFGVPIATWPMYAEQQLNAFTIVKELGLALEMRLDYVSEYGEIVKADEIAGAVRSLMDGEDVPRRKLKEIAEAGKEAVMDGGSSFVAVKRFIDGL
B2: GLY87: glycosyltransferase (UGT), SEQ ID NO: 10 (protein)
chain: MGKQEDAELVIIPFPFSGHILATIELAKRLISQDNPRIHTITILYWGLPFIPQADTIAFLRSLVKNEPRIRLVTLPEVQDPPPMELFVEFAESYILEYVKKMVPIIREALSTLLSSRDESGSVRVAGLVLDFFCVPMIDVGNEFNLPSYIFLTCSAGFLGMMKYLPERHREIKSEFNRSFNEELNLIPGYVNSVPTKVLPSGLFMKETYEPWVELAERFPEAKGILVNSYTALEPNGFKYFDRCPDNYPTIYPIGPILNLENKKDDAKTDEIMRWLNEQPESSVVFLCFGSMGSFNEKQVKEIAVAIERSGHRFLWSLRRPTPKEKIEFPKEYENLEEVLPEGFLKRTSSIGKVIGWAPQMAVLSHPSVGGFVSHCGWNSTLESMWCGVPMAAWPLYAEQTLNAFLLVVELGLAAEIRMDYRTDTKAGYDGGMEVTVEEIEDGIRKLMSDGEIRNKVKDVKEKSRAAVVEGGSSYASIGKFIEHVSNVTI

Experiments:
Format in all cases: biochemical
[1] = Glycosylation of 4-OH-DMT by GLY enzymes (UDP-glucose), LC-UV/MS; settings: conditions of Examples 1 and 2 repeated for 4-HO-DMT; estimate from UV peak areas
Description: (§1) The assay conditions were: • 100 mM Tris-HCl, pH 7.4 • 5 mM MgCl2 • 1 mM KCl • 1.25 mM UDP-glucose • 0.5 mM 4-OH-MET • 5% (v/v) DMSO • 0.1 U/uL Fast AP phosphatase • 25% (v/v) GLY enzyme
(§2) Incubation was 24 house at 30° C. Reactions were terminated adding 3 volumes of 75% (v/v) ethanol.
(§3) LC separation was performed using an Agligen 1290 Infinity II UHPLC equipped with a Phenomenex Kinetex XB-C18 column (1.7 um, 100 angstroms, 100×2.1 mm) and 4-HO-MET was detected by absorbance at 210 nm and 268 nm with an Agilent 1260 Infinity II DAD.
(§4) 0.1% Formic acid in water (A) and 0.1% Formic acid in acetonitrile (B) were used as the mobile phases for the elution gradient, with a flow rate of 0.4 ml/min. Retention time for 4-HO-MET using this type of instrument under these condition was 2.6 min. The system was coupled to an Ultivo Triple Quadrupole MS. To verify the presence of possible glycoside products, as SIM (Selected Ion Monitoring) method was used on the MS to analyse for the m/z 381 (theoretical mass to chart ratio of 4-HO-MET-glucoside) and m/z 219 (theoretical mass to charge ratio of 4-HO-MET).
(§5) The enzymes giving the additional peak putatively corresponding to the 4-HO-MET-β-D-glucoside are listed below. […] A correct quantification of the product is not possible without a standard for the specific molecule. However, based on the assumption that the ratio area-to-concentration in the UV chromatograms will be similar to 4-HO-MET, estimates of the relative abundance for the additional peak are also given, expressed as percentage of converted 4-HO-MET. GLY enzymes hits are ranked according to their estimated conversion efficiency.
(§6) The experiments described in Examples 1 and 2 above were repeated for 4-OH-MiPT, 4-HO-DMT and 5-HO-DMT
(§7) Below is the corresponding data for 4-OH-DMT and 5-HO-DMT.

[2] = Glycosylation of 4-HO-MET by GLY enzymes (UDP-glucose), LC-UV/MS; settings: 0.5 mM 4-OH-MET, 1.25 mM UDP-glucose, 25% (v/v) GLY enzyme, 24 h at 30° C.; estimate from UV peak areas
Description: 4-HO-MET was dissolved in 100% (v/v) DMSO to a concentration of 10 mM. The solution was stored at −20° C. prior to use.
FastAP phosphatase (1 U/uL) from ThermoFisher Scientific (catalog no. EF0651).
GLY enzyme suspensions contain 10 mM Tris-HCl at pH7.4, 250 mM imidazole and 50% (v/v) glycerol.
as §1, §2, §3, §4
As standard, 4-HO-MET solutions at a concentrations of 500, 250, 125, 62.5, and 31.25 uM were prepared from the 10 mM stock and used for caliboration.
A representative example of the chromatograms obtained with a wavelength of 268 nm for the standard solutions resuspended in the reaction buffer, and the corresponding MS-SIM signal, is shown in FIG. 16. The peak corresponding to 4-HO-MET is indicated.
When analyzing the GLY reactions, 30 of them gave an additional peak with retention time 2.2 min (i.e. in the expected region for a 4-HO-MET glucoside) and molecular mass compatible with the expected glucoside product, together with a corresponding decrease in substrate concentration, compared to the no-enzyme controls.
The method was repeated using various GLY enzymes to produce 4-HO-MET glucosides.
as §5

[3] = Glycosylation of 4-OH-EPT by GLY enzymes (UDP-glucose), LC-UV/MS; settings: conditions of Examples 1 and 2 repeated for 4-OH-EPT; estimate from UV peak areas
Description: as §1, §2, §3, §4, §5
The experiments described in Examples 1 and 2 above were repeated for 4-OH-EPT.
Below is the corresponding data for 4-OH-EPT.

[4] = Glycosylation of 5-HO-DMT by GLY enzymes (UDP-glucose), LC-UV/MS; settings: conditions of Examples 1 and 2 repeated for 5-HO-DMT
Description: as §1, §2, §3, §4, §5, §6, §7

[5] = Glycosylation of 4-OH-MiPT by GLY enzymes (UDP-glucose), LC-UV/MS; settings: conditions of Examples 1 and 2 repeated for 4-OH-MiPT; estimate from UV peak areas
Description: as §1, §2, §3, §4, §5, §6
Below is the corresponding data for 4-OH-MiPT.

Row | Molecule | 4-OH-DMT GLY % [1] [%] | 4-OH-MET GLY % (percentage of converted 4-HO-MET) [2] [%] | 4-OH-EPT GLY % (percentage of converted 4-OH-EPT) [3] [%] | 5-OH-DMT GLY % [4] [%] | 4-OH-MiPT GLY % (percentage of converted 4-OH-MiPT) [5] [%]
1 | B1 | 89.3 | 98.6 | 80.5 | 6 | 58.4
2 | B2 | 85.3 | 95.2 | 68.9 | 3 | 76.4
